Bridge positions count the residues as written; N and C are the ends. Square brackets hold non-standard residues; d marks the D form. Ends that are not written are not given here. S5 = C=CCCC[C@](C)(N)C(=O)O
What was measured:
[1] = molecular target: T1, VLCAD (Homo sapiens, UniProt P49748); assay: 19F NMR binding study with fluorinated SAHB; conditions: fluorinated SAHB 25 μM, VLCAD 0-125 μM
T1 construct: 10x His (N); made in house; host or cells: E. coli BL21(DE3), pET19b
T1 sequence (P49748 40-655): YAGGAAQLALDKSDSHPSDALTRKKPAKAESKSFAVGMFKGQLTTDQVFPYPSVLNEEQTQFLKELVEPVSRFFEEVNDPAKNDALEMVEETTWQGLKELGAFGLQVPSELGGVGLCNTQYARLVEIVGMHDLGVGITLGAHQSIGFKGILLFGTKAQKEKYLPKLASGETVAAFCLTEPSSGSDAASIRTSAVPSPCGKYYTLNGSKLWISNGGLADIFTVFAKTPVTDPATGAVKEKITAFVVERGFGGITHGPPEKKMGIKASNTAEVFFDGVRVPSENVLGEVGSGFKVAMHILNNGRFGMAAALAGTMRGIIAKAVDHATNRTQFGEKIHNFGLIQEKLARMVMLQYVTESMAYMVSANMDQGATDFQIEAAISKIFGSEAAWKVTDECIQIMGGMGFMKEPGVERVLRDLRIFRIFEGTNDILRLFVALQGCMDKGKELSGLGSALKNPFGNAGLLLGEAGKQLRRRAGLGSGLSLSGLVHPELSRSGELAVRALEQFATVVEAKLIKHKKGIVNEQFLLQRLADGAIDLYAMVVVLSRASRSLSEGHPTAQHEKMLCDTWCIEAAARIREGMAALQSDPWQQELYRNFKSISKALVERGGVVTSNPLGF
Description: To measure the direct binding interaction, ^19F NMR binding studies were conducted using fluorinated analogs of MCL-1 SAHBD. […] Both SAHBs, however, bind MCL-1ΔNΔC, as illustrated by a chemical shift of the peptide NMR peak in both cases (FIG. 15). […] To perform these experiments, N-terminal Btn-PEG analogs of the peptides were immobilized onto streptavidin probes that were then placed into protein solutions at a variety of concentrations to measure ligand-target association.
(§1) VLCAD. Mature human VLCAD lacking its cleavable leader sequence (aa 40-655) (NP_000009.1) was subcloned into the pET19b vector (Novagen) using NdeI and XhoI restriction sites. Correct insertion was confirmed by DNA sequencing. […]
To determine binding of SAHBs to VLCAD, fluorinated SAHB (25 μM) and VLCAD (0-125 μM) were mixed together in VLCAD FPLC buffer including 10% D2O to a final volume of 500 μL. […] The extent to which VLCAD bound the peptide was determined by measuring the peak width at half height (ν1/2) of the peptide ^19F signal. […] MCL-1ΔNΔC binding to SAHBs causes a change in the ^19F chemical shift of the peptide resulting in two peptide signals (instead of peak broadening), so extent of binding was quantified by measuring the peak height of “unbound” peptide relative to the bound peptide signal.

[2] = molecular target: T1, VLCAD; assay: In vitro VLCAD enzymatic activity assay (palmitoyl-CoA, ferrocenium hexafluorophosphate); format: biochemical; conditions: 0.75 μM VLCAD pre-incubated overnight at 4° C. with 75 μM SAHB; substrate palmitoyl-CoA
Description: To assess whether the direct MCL-1/VLCAD binding interaction influences VLCAD enzymatic activity, an in vitro enzymatic activity assay was conducted. Recombinant VLCAD was incubated with its substrate (palmitoyl-CoA) and ferrocenium hexafluorophosphate, a strong electrophile. As VLCAD acts upon its substrate and oxidizes it, the ferrocenium hexafluorophosphate is reduced, causing a change in absorbance that is readily measured.
as §1
VLCAD enzymatic activity was measured as previously described (see, e.g., Doulias et al., Sci Signal, 6(256):rs1 (2013); Lehman et al., Anal. Biochem., 186(2):280-284 (1990)). […] Where VLCAD activity was assessed in the presence of MCL-1 SAHBs, 0.75 μM VLCAD was incubated overnight at 4° C. with 75 μM SAHB and the protein-peptide mixture was used to initiate the ferrocenium reaction. Decrease in ferrocenium absorbance as a function of time at 300 nm was recorded and the initial velocity (V0) was calculated in units of U/mg using the molar absorptivity of ferrocenium (ε=4.3 mM^−1 cm^−1 at 300 nm) (see, e.g., Izai et al.). […]

[3] = system: CreER^T2 MEFs; assay: MS-based acylcarnitine quantification in MEFs; format: cell-based, mouse; conditions: 10 μM
[4] = system: Mcl-1^F/F CreER^T2 cells; conditions: vehicle and tamoxifen exposed cells; except at the highest dose applied (100 μM)

## MCL-1 SAHBD: hydrocarbon-stapled peptide mimicking the MCL-1 BH3 domain (Stabilized Alpha-Helix of BCL-2 Domain), SEQ ID NO:19 (RKALETLRRVGDGV[S5]RNH[S5]TAF; staple 15-19)
[1]
  19F NMR peptide peak broadening on VLCAD titration: peak broadens, indicative of a direct binding event
[2]
  effect on VLCAD enzymatic activity: caused a decrease in enzymatic activity
[3]; Mcl-1^F/F CreER^T2 MEFs not exposed to tamoxifen, 48 hours
  levels of very long-chain acylcarnitines relative to vehicle-treated control: elevated levels
[3]; Mcl-1^F/F CreER^T2 MEFs subjected to tamoxifen (Mcl-1 deleted)
  effect on already elevated acylcarnitine levels: no effect
[4]
  cytotoxicity (cell viability): Essentially no cytotoxicity

— patent US12366576B2, “Compositions, assays, and methods for direct modulation of fatty acid metabolism” (Dana-Farber Cancer Institute, Inc., priority 2016, dated 2025)
